Positions of bridges follow the written chain, without caps; N, C: chain ends. Non-standard residues stand in square brackets, D forms with d. Pro(trans-4-guanidino) = N=C(N)N[C@H]1CN[C@H](C(=O)O)C1; Pro(cis-4-guanidino) = NC(N)=N[C@@H]1CN[C@H](C(=O)O)C1; Lys(Me2) = CN(C)CCCC[C@H](N)C(=O)O; Hyp = O=C(O)[C@@H]1C[C@@H](O)CN1; Aib = CC(C)(N)C(=O)O; GABA = NCCCC(=O)O; Sar = CNCC(=O)O
Experiments:
[1] = target: T1, human melanocortin 4 receptor (human, UniProt P32245 1-332); experiment: competition with 125-NDP-α-MSH, BHK human MC4R membranes
T1 construct: whole, on cells; cAMP assay on whole BHK cells; also called MC4R; human MC4 receptor
T1 sequence (P32245 whole entry): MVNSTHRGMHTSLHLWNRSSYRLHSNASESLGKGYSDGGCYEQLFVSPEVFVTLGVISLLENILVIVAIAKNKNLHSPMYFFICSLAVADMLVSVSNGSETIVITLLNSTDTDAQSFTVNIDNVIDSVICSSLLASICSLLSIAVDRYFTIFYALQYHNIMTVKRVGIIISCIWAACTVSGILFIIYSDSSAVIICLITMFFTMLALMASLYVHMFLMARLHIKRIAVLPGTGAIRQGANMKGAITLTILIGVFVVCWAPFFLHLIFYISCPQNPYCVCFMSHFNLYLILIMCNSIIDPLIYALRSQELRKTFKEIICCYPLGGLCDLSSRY
Summary of the method: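 Competition binding used membranes from BHK cells stably expressing human MC4R with ¹²⁵I-NDP-α-MSH (apx. […] final), compound at 1 μM–0.001 nM. Incubation was 2 h at 25 °C in HEPES pH 7.0 buffer with CaCl₂, MgSO₄, EGTA, Tween 20 and 0.1% HSA or ovalbumin. Filter-bound radioactivity was fitted by non-linear regression.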

[2] = target: human melanocortin 1 receptor (human, UniProt Q01726 1-317); experiment: cell-based or functional assay
Sequence of human melanocortin 1 receptor (Q01726 whole entry): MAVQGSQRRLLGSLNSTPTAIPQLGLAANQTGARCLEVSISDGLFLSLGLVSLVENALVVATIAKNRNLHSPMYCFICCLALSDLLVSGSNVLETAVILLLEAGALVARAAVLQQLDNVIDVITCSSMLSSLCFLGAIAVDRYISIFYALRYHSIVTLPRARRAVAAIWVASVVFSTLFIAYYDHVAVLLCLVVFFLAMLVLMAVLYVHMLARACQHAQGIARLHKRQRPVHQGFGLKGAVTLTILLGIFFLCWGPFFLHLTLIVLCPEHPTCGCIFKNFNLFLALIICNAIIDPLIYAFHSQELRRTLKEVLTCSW

[3] = target: T1, human melanocortin 4 receptor; experiment: cell-based or functional assay

Binder	Ki [1] [nM]	MC1R cAMP EC50 [2] [nM]	MC4R cAMP EC50 [3] [nM]
cyclo(CA[Hyp][dF]RWCA[Hyp][dF]RW) (bridge 1-7 via methylene bridge (S-CH2-S), also called c[c[Cys-Ala-Hyp-D-Phe-Arg-Trp-Cys]-Ala-Hyp-D-Phe-Arg-Trp]; Note: methylene bridge) [Chem. 23]	13.6	> 10	3.26
cyclo(CAH[dF][Lys(Me2)]WCAH[dF][Lys(Me2)]W) (disulfide 1-7; SMILES C[C@@H]1NC(=O)[C@@H]2CSSC[C@H](NC(=O)[C@H](Cc3c[nH]c4ccccc34)NC(=O)[C@H](CCCCN(C)C)NC(=O)[C@@H](Cc3ccccc3)NC(=O)[C@H](Cc3c[nH]cn3)NC1=O)C(=O)N[C@@H](C)C(=O)N[C@@H](Cc1c[nH]cn1)C(=O)N[C@H](Cc1ccccc1)C(=O)N[C@@H](CCCCN(C)C)C(=O)N[C@@H](Cc1c[nH]c3ccccc13)C(=O)N2, also called c[c[Cys-Ala-His-D-Phe-Lys(Me)2-Trp-Cys]-Ala-His-D-Phe-Lys(Me)2-Trp]) [Chem. 18]	0.38	4.22	0.12
cyclo(CAH[dF][Pro(cis-4-guanidino)]WCAH[dF][Pro(cis-4-guanidino)]W) (disulfide 1-7; SMILES C[C@@H]1NC(=O)[C@@H]2CSSC[C@H](NC(=O)[C@H](Cc3c[nH]c4ccccc34)NC(=O)[C@@H]3C[C@H](N=C(N)N)CN3C(=O)[C@@H](Cc3ccccc3)NC(=O)[C@H](Cc3c[nH]cn3)NC1=O)C(=O)N[C@@H](C)C(=O)N[C@@H](Cc1c[nH]cn1)C(=O)N[C@H](Cc1ccccc1)C(=O)N1C[C@@H](N=C(N)N)C[C@H]1C(=O)N[C@@H](Cc1c[nH]c3ccccc13)C(=O)N2, also called c[c[Cys-Ala-His-D-Phe-4cis-GuaPro-Trp-Cys]-Ala-His-D-Phe-4cis-GuaPro-Trp]) [Chem. 29]	1210	> 100	1020
cyclo(CPH[dF]RWCPH[dF]RW) (disulfide 1-7; SMILES N=C(N)NCCC[C@@H]1NC(=O)[C@@H](Cc2ccccc2)NC(=O)[C@H](Cc2c[nH]cn2)NC(=O)[C@@H]2CCCN2C(=O)[C@@H]2CSSC[C@H](NC(=O)[C@H](Cc3c[nH]c4ccccc34)NC1=O)C(=O)N1CCC[C@H]1C(=O)N[C@@H](Cc1c[nH]cn1)C(=O)N[C@H](Cc1ccccc1)C(=O)N[C@@H](CCCNC(=N)N)C(=O)N[C@@H](Cc1c[nH]c3ccccc13)C(=O)N2, also called c[c[Cys-Pro-His-D-Phe-Arg-Trp-Cys]-Pro-His-D-Phe-Arg-Trp]) [Chem. 30]	0.09	0.61	0.03
cyclo(CAH[dF]HWCAH[dF]HW) (disulfide 1-7; SMILES C[C@@H]1NC(=O)[C@@H]2CSSC[C@H](NC(=O)[C@H](Cc3c[nH]c4ccccc34)NC(=O)[C@H](Cc3c[nH]cn3)NC(=O)[C@@H](Cc3ccccc3)NC(=O)[C@H](Cc3c[nH]cn3)NC1=O)C(=O)N[C@@H](C)C(=O)N[C@@H](Cc1c[nH]cn1)C(=O)N[C@H](Cc1ccccc1)C(=O)N[C@@H](Cc1c[nH]cn1)C(=O)N[C@@H](Cc1c[nH]c3ccccc13)C(=O)N2, also called c[c[Cys-Ala-His-D-Phe-His-Trp-Cys]-Ala-His-D-Phe-His-Trp]) [Chem. 24]	0.55	178	0.49
CAHFXWCAHFXW (D-Phe 4, 10; HArg 5, 11; disulphide Cys1-Cys7; head-to-tail amide Cys1-Trp12, also called c[c[Cys-Ala-His-D-Phe-HArg-Trp-Cys]-Ala-His-D-Phe-HArg-Trp]) [Chem. 22]	0.06	0.22	0.02
cyclo(C[Aib]P[dF]RWC[Aib]P[dF]RW) (disulfide 1-7; SMILES CC1(C)NC(=O)[C@@H]2CSSC[C@H](NC(=O)[C@H](Cc3c[nH]c4ccccc34)NC(=O)[C@H](CCCNC(=N)N)NC(=O)[C@@H](Cc3ccccc3)NC(=O)[C@@H]3CCCN3C1=O)C(=O)NC(C)(C)C(=O)N1CCC[C@H]1C(=O)N[C@H](Cc1ccccc1)C(=O)N[C@@H](CCCNC(=N)N)C(=O)N[C@@H](Cc1c[nH]c3ccccc13)C(=O)N2, also called c[c[Cys-Aib-Pro-D-Phe-Arg-Trp-Cys]-Aib-Pro-D-Phe-Arg-Trp]) [Chem. 39]	1.8	56.4	1.54
CXHFRWCXHFRW (βAla 2, 8; D-Phe 4, 10; disulphide Cys1-Cys7; head-to-tail amide Cys1-Trp12, also called c[c[Cys-βAla-His-D-Phe-Arg-Trp-Cys]-βAla-His-D-Phe-Arg-Trp]) [Chem. 25]	0.04	0.34	0.02
CAHFXWCAHFXW (D-Phe 4, 10; Cit 5, 11; disulphide Cys1-Cys7; head-to-tail amide Cys1-Trp12, also called c[c[Cys-Ala-His-D-Phe-Cit-Trp-Cys]-Ala-His-D-Phe-Cit-Trp]) [Chem. 19]	1.49	> 1	0.13
cyclo(C[Sar]H[dF]RWC[Sar]H[dF]RW) (disulfide 1-7; SMILES CN1CC(=O)N[C@@H](Cc2c[nH]cn2)C(=O)N[C@H](Cc2ccccc2)C(=O)N[C@@H](CCCNC(=N)N)C(=O)N[C@@H](Cc2c[nH]c3ccccc23)C(=O)N[C@H]2CSSC[C@H](NC(=O)[C@H](Cc3c[nH]c4ccccc34)NC(=O)[C@H](CCCNC(=N)N)NC(=O)[C@@H](Cc3ccccc3)NC(=O)[C@H](Cc3c[nH]cn3)NC(=O)CN(C)C2=O)C1=O, also called c[c[Cys-Sar-His-D-Phe-Arg-Trp-Cys]-Sar-His-D-Phe-Arg-Trp]) [Chem. 31]	1.67	7.78	0.29
cyclo(C[Hyp][dF]RWC[Hyp][dF]RW) (bridge 1-6 via methylene bridge (S-CH2-S), also called c[c[Cys-Hyp-D-Phe-Arg-Trp-Cys]-Hyp-D-Phe-Arg-Trp]; Note: methylene bridge) [Chem. 26]	0.44	17.2	0.18
cyclo(CVH[dF]RWCVH[dF]RW) (disulfide 1-7; SMILES CC(C)[C@@H]1NC(=O)[C@@H]2CSSC[C@H](NC(=O)[C@H](Cc3c[nH]c4ccccc34)NC(=O)[C@H](CCCNC(=N)N)NC(=O)[C@@H](Cc3ccccc3)NC(=O)[C@H](Cc3c[nH]cn3)NC1=O)C(=O)N[C@@H](C(C)C)C(=O)N[C@@H](Cc1c[nH]cn1)C(=O)N[C@H](Cc1ccccc1)C(=O)N[C@@H](CCCNC(=N)N)C(=O)N[C@@H](Cc1c[nH]c3ccccc13)C(=O)N2, also called c[c[Cys-Val-His-D-Phe-Arg-Trp-Cys]-Val-His-D-Phe-Arg-Trp]) [Chem. 36]	0.12	1.05	0.04
cyclo(CH[dF]RWGCH[dF]RWG) (disulfide 1-7; SMILES N=C(N)NCCC[C@@H]1NC(=O)[C@@H](Cc2ccccc2)NC(=O)[C@H](Cc2c[nH]cn2)NC(=O)[C@@H]2CSSC[C@H](NC(=O)CNC(=O)[C@H](Cc3c[nH]c4ccccc34)NC1=O)C(=O)N[C@@H](Cc1c[nH]cn1)C(=O)N[C@H](Cc1ccccc1)C(=O)N[C@@H](CCCNC(=N)N)C(=O)N[C@@H](Cc1c[nH]c3ccccc13)C(=O)NCC(=O)N2, also called c[c[Cys-His-D-Phe-Arg-Trp-Gly-Cys]-His-D-Phe-Arg-Trp-Gly]) [Chem. 4]	0.69	0.67	0.09
cyclo(C[Hyp]H[dF]RWC[Hyp]H[dF]RW) (disulfide 1-7; SMILES N=C(N)NCCC[C@@H]1NC(=O)[C@@H](Cc2ccccc2)NC(=O)[C@H](Cc2c[nH]cn2)NC(=O)[C@@H]2C[C@@H](O)CN2C(=O)[C@@H]2CSSC[C@H](NC(=O)[C@H](Cc3c[nH]c4ccccc34)NC1=O)C(=O)N1C[C@H](O)C[C@H]1C(=O)N[C@@H](Cc1c[nH]cn1)C(=O)N[C@H](Cc1ccccc1)C(=O)N[C@@H](CCCNC(=N)N)C(=O)N[C@@H](Cc1c[nH]c3ccccc13)C(=O)N2, also called c[c[Cys-Hyp-His-D-Phe-Arg-Trp-Cys]-Hyp-His-D-Phe-Arg-Trp]) [Chem. 32]	0.37	1.98	0.12
CAHFXWCAHFXW (D-Phe 4, 10; N-MeArg 5, 11; disulphide Cys1-Cys7; head-to-tail amide Cys1-Trp12, also called c[c[Cys-Ala-His-D-Phe-N-MeArg-Trp-Cys]-Ala-His-D-Phe-N-MeArg-Trp]) [Chem. 37]	3.31	13.1	1.57
cyclo(C[GABA]H[dF]RWC[GABA]H[dF]RW) (disulfide 1-7; SMILES N=C(N)NCCC[C@@H]1NC(=O)[C@@H](Cc2ccccc2)NC(=O)[C@H](Cc2c[nH]cn2)NC(=O)CCCNC(=O)[C@@H]2CSSC[C@H](NC(=O)[C@H](Cc3c[nH]c4ccccc34)NC1=O)C(=O)NCCCC(=O)N[C@@H](Cc1c[nH]cn1)C(=O)N[C@H](Cc1ccccc1)C(=O)N[C@@H](CCCNC(=N)N)C(=O)N[C@@H](Cc1c[nH]c3ccccc13)C(=O)N2, also called c[c[Cys-GABA-His-D-Phe-Arg-Trp-Cys]-GABA-His-D-Phe-Arg-Trp]) [Chem. 35]	0.03	0.28	0.01
cyclo(C[Hyp][dF]RWC[Hyp][dF]RW) (disulfide 1-6; SMILES N=C(N)NCCC[C@@H]1NC(=O)[C@@H](Cc2ccccc2)NC(=O)[C@@H]2C[C@@H](O)CN2C(=O)[C@@H]2CSSC[C@H](NC(=O)[C@H](Cc3c[nH]c4ccccc34)NC1=O)C(=O)N1C[C@H](O)C[C@H]1C(=O)N[C@H](Cc1ccccc1)C(=O)N[C@@H](CCCNC(=N)N)C(=O)N[C@@H](Cc1c[nH]c3ccccc13)C(=O)N2, also called c[c[Cys-Hyp-D-Phe-Arg-Trp-Cys]-Hyp-D-Phe-Arg-Trp]) [Chem. 27]	1.01	50.9	0.24
XAHFRWXAHFRW (HCys 1, 7; D-Phe 4, 10; disulphide HCys1-HCys7; head-to-tail amide HCys1-Trp12, also called c[c[HCys-Ala-His-D-Phe-Arg-Trp-HCys]-Ala-His-D-Phe-Arg-Trp]) [Chem. 3]	0.42	7.29	0.26
CXHFRWCXHFRW (ACBC 2, 8; D-Phe 4, 10; disulphide Cys1-Cys7; head-to-tail amide Cys1-Trp12, also called c[c[Cys-ACBC-His-D-Phe-Arg-Trp-Cys]-ACBC-His-D-Phe-Arg-Trp]) [Chem. 20]	0.15	4.97	0.04
cyclo(CAH[dF][Pro(trans-4-guanidino)]WCAH[dF][Pro(trans-4-guanidino)]W) (disulfide 1-7; SMILES C[C@@H]1NC(=O)[C@@H]2CSSC[C@H](NC(=O)[C@H](Cc3c[nH]c4ccccc34)NC(=O)[C@@H]3C[C@@H](NC(=N)N)CN3C(=O)[C@@H](Cc3ccccc3)NC(=O)[C@H](Cc3c[nH]cn3)NC1=O)C(=O)N[C@@H](C)C(=O)N[C@@H](Cc1c[nH]cn1)C(=O)N[C@H](Cc1ccccc1)C(=O)N1C[C@H](NC(=N)N)C[C@H]1C(=O)N[C@@H](Cc1c[nH]c3ccccc13)C(=O)N2, also called c[c[Cys-Ala-His-D-Phe-4trans-GuaPro-Trp-Cys]-Ala-His-D-Phe-4trans-GuaPro-Trp]) [Chem. 28]	892	> 100	518
